According to article PMC4618692, “Crystal Structure and Identification of Two Key Amino Acids Involved in AI-2 Production and Biofilm Formation in Streptococcus suis LuxS” (PLoS ONE, 2015):

Target: the molecule itself
Assay: SEC; size exclusion chromatography of purified LuxS (Superdex 200 named in the purification); data not shown

B1: S-ribosylhomocysteinase (LuxS) from Streptococcus suis strain HA9801 (enzyme, UniProt A4VTE8 1-160, looked up)
chain: MKKEVTVESFELDHTIVKAPYIRLISEEVGPKGDIITNFDIRLIQPNENAMDTAGLHTIEHLLAKLIRQRIDGLIDCSPFGCRTGFHMIMWGKQDSEKIAQVIKSSLEEIAEGITWEDVPGTTIESCGNYKDHSLHSAKEWAKLILSQGISTDAFERKPI
notes: also called S. suis LuxS; SS LuxS protein; source: E. coli BL21 (DE3), pET28-luxS, purified (HisTrap column, Superdex 200 size-exclusion chromatography)
stoichiometry N: 2
